This passage reports Kd results from US20130129725A1 (published 2013).

The test deals with biotinylated hu-β-klotho (UniProt Q86Z14 53-996, biotinylated (sites not given)). Put plainly: Octet BLI. A general note: Biolayer interferometry detects binding as a change in optical thickness at a sensor tip.
Chain of biotinylated hu-β-klotho (Q86Z14 53-996): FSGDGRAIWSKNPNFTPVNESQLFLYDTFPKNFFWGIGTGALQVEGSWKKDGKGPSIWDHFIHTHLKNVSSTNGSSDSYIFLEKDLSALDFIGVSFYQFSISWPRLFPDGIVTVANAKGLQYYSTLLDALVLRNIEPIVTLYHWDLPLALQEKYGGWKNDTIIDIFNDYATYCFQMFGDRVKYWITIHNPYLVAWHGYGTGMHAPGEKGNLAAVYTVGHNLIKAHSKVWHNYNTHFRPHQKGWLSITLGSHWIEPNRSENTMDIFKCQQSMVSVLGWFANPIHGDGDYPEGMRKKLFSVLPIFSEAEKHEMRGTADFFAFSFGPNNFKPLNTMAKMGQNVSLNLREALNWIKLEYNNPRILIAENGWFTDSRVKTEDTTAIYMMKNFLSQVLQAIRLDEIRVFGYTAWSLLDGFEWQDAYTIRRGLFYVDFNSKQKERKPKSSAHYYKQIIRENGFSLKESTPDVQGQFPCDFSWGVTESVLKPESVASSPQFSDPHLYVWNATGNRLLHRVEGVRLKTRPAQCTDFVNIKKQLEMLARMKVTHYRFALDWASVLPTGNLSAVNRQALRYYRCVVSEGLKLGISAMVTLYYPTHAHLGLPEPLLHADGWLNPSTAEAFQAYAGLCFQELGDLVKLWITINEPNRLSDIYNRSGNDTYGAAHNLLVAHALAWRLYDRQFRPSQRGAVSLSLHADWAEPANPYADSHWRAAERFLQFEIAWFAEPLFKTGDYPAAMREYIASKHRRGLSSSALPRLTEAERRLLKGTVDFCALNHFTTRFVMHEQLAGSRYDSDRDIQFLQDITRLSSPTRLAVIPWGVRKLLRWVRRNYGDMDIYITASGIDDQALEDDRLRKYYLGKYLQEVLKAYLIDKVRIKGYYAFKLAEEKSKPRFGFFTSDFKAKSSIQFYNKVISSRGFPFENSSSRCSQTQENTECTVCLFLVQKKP

B1: 8F9 (antibody, V domains shown)
VH: QVQLVESGGGVVQPGRSLRLSCAASGFTFSSYGMHWVRQAPGKGLEWVAVIWYDGRNKYHADSVKGRFTISRDNSKNTLYLQMNSLRAEDTAVYYCARDHPVAGTSFDYWGQGTLVTVSS
VL: QSVLTQPPSVSAAPGQKVTISCSGSSSNIGNNYVSWYQQLPGTAPKLLIYDNNKRPSGIPDRFSGSKSGTSATLGITGLQTGDEADYYCGTWDSSLSAVVFGGGTKLTVLG
For the molecule B1, the Kd (commonly the free concentration of one partner at which half of the binding sites on the other are occupied at equilibrium, for simple one-to-one binding) came out at 0.422 nM.

B2: 3F4 (antibody, V domains shown)
VH: QVQLVESGGGVVQPGRSLRLSCAASGFIFRSYGMHWVRQAPGKGLEWVAVISYDGSNKYYADSVKGRFTISRDNSKNTLYLQMNSLRAEDTAVYYCARDHPVAGTSFDYWGQGTLVTVSS
VL: QSVLTQPPSVSAAPGQKVTISCSGSSSNIGNNYVSWYQQLPGTAPKLLIYDNNNRPSGIPDRFSGSKSGTSATLGITGLQTGDEADYYCETWDSSLSAGVFGGGTKLTVLG
The molecule B2 had a Kd of 0.281 nM.

B3: 9D10 (antibody, V domains shown)
VH: QVQLVESGGGVVQPGRSLRLSCAASGFTFRSYGMHWVRQAPGKGLEWVAVIWYDGRNEYYADSVKGRFTISRDNSKNTLYLRMNSLRAEDTAVYYCARDHPVAGTSFDYWGQGTLVTVSS
VL: QSVLTQPPSVSAAPGQKVTISCSGSSSNIGNNYVSWYQQLPGTAPKLLIYDNNRRPSGIPDRFSGSKSGTSATLGITGLQTGDEADYYCGTWDSSLSAVVFGGGTKLTVLG
Consider B3, for which the equilibrium dissociation constant (Kd) was found to be 0.298 nM.

B4: 1A2 (antibody, V domains shown)
VH: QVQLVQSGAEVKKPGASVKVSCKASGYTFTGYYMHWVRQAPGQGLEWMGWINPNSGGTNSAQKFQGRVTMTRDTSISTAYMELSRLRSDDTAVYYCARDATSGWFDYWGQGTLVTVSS
VL: DIVMTQTPLSSPVTLGQPASISCRSSQSLVYSDGNTYLSWLQQRPGQPPRLLIYKISNRFSGVPDRFSGSGAGTDFTLKISRVEADDVGIYYCMQAIEFPWTFGQGTQVEIKR
In turn, B4 showed a Kd of 2.14 nM.

B5: 1B5 (antibody, V domains shown)
VH: QVQLVQSGAEVKKPGASVKVSCKASGYTFTAYYMHWVRQAPGQGLEWMGWINPNSGGTNSAQKFQGRVTMTRDTSIRTAYMELSWLRSDDTAVYYCARDATSGWFDFWGQGTPVTVSS
VL: DIVMTQTPLTSPVTLGQPASISCRSSQSLVHYDGNTYLSWLQQRPGQPPRLLIYKISNRFSGVPDRFSGSGAGTDFTLKISRVEAEDVGIYYCMQALEFPWTFGQGTKVEIKR
Turning to B5, the Kd amounted to 0.578 nM. This Kd lies about 3.7-fold lower than the previous one.

B6: 3B4 (antibody, V domains shown)
VH: QVQLVQSGAEVKKPGASVKVSCKASGYTFTAYYMHWVRQAPGQGLEWMGWINPNSGGTNSAQKFQGRVTMTRDTSIRTAYMELSWLRSDDTAVYYCARDATSGWFDIWGQGTPVTVSS
VL: DIVMTQTPLSSPVTLGQPASISCRSSQSLVHYDGNTYLSWLQQRPGQPPRLLIYKISNRFSGVPDRFSGSGAGTDFTLKISRVEAEDVGIYYCMQALEFPWTFGQGTKVEIKR
Regarding B6, the Kd worked out at 6.08 nM. Against the preceding molecule, the Kd is about 11-fold higher.

B7: 10H3 (antibody, V domains shown)
VH: QVQLVQSGAEVRKPGASVKVSCKASGYTFTAYYMHWVRQAPGQGLEWMGWINPYSGGTNSAQKFQGRVTMTRDTSISTAYMELSWLRSDDTAVYYCARDATSGWFDFWGQGTLVTVSS
VL: DIVMTQTPLSSPVTLGQPASISCRSSQSLVHYDGNTYLSWLQQRPGQPPRLLIYKISNRFSGVPDRFSGSGAGTDFTLKISRVAAEDVGIYYCMQALEFPWTFGQGTKVEIKR
The molecule B7 gave a dissociation constant (Kd) of 0.563 nM.
